The supplement of paper PMC5998384

What was measured:
[1] = test system: HeLa Kyoto; test: solubility in G1/S (NP-40 vs SDS abundance) (log2 ratio); higher = more soluble; settings: cell cycle stage: G1/S
[2] = test system: HeLa Kyoto; test: melting temperature (median over replicates), in situ; higher = more thermally stable
[3] = test system: HeLa Kyoto; test: thermal stability score vs G1/S (z-score of summed log2 fold changes over temperatures); higher = more thermally stable than in G1/S
[4] = test system: HeLa Kyoto; test: solubility change mitosis vs G1/S (difference of NP-40 vs SDS log2 ratios) (log2 ratio difference); higher = more soluble in mitosis
[5] = cell cycle stage: early G1 (4.5 h after nocodazole release)
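Throughout, for melting temperature (median over replicates), in situ: HeLa Kyoto cells synchronized by double thymidine or nocodazole block, proteins quantified by TMT10plex mass spectrometry, three independent biological replicates.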
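Throughout, for solubility change mitosis vs G1/S (difference of NP-40 vs SDS log2 ratios): synchronized HeLa Kyoto cells (double thymidine block for G1/S, nocodazole release for mitosis), protein amounts in NP-40 versus SDS lysates quantified by mass spectrometry, three biological replicates.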
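Throughout, for solubility in G1/S (NP-40 vs SDS abundance): HeLa Kyoto cells arrested at G1/S by double thymidine block, proteins quantified by TMT10plex mass spectrometry in mild NP-40 versus SDS extracts, three biological replicates.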
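Throughout, for thermal stability score vs G1/S (z-score of summed log2 fold changes over temperatures): synchronized HeLa Kyoto cells, proteins quantified by TMT10plex mass spectrometry, three biological replicates, mitosis taken 0.5 h after nocodazole release, G1/S directly after double thymidine block.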

| Substance | solubility in G1/S (log2) [1] | melting temperature ([2]; cell cycle stage: G1/S) [°C] | melting temperature ([2]; cell cycle stage: mitosis) [°C] | thermal stability score [3, 5] | thermal stability score ([3]; cell cycle stage: mitosis) | solubility change mitosis (log2) [4] |
| --- | --- | --- | --- | --- | --- | --- |
| MAVAAAAAAAGPAGAGGGRAQRSGLLEVLVRDRWHKVLVNLSEDALVLSSEEGAAAYNGIGTATNGSFCRGAGAGHPGAGGAQPPDSPAGVRTAFTDLPEQVPESISNQKRGVKVLKQELGGLGISIKGGKENKMPILISKIFKGLAADQTQALYVGDAILSVNGADLRDATHDEAVQALKRAGKEVLLEVKYMREATPYVKKGSPVSEIGWETPPPESPRLGGSTSDPPSSQSFSFHRDRKSIPLKMCYVTRSMALADPENRQLEIHSPDAKHTVILRSKDSATAQAWFSAIHSNVNDLLTRVIAEVREQLGKTGIAGSREIRHLGWLAEKVPGESKKQWKPALVVLTEKDLLIYDSMPRRKEAWFSPVHTYPLLATRLVHSGPGKGSPQAGVDLSFATRTGTRQGIETHLFRAETSRDLSHWTRSIVQGCHNSAELIAEISTACTYKNQECRLTIHYENGFSITTEPQEGAFPKTIIQSPYEKLKMSSDDGIRMLYLDFGGKDGEIQLDLHSCPKPIVFIIHSFLSAKITRLGLVA [SNTB1] | 0.0289 | 49.9 | 50.2 | 0.836 | 0.333 | 0.0627 |
| MSFSEMNRRTLAFRGGGLVTASGGGSTNNNAGGEASAWPPQPQPRQPPPPAPPALQPPNGRGADEEVELEGLEPQDLEASAGPAAGAAEEAKELLLPQDAGGPTSLGGGAGGPLLAERNRRTLAFRGGGGGGLGNNGSSRGRPETSVWPLRHFNGRGPATVDLELDALEGKELMQDGASLSDSTEDEEEGASLGDGSGAEGGSCSSSRRSGGDGGDEVEGSGVGAGEGETVQHFPLARPKSLMQKLQCSFQTSWLKDFPWLRYSKDTGLMSCGWCQKTPADGGSVDLPPVGHDELSRGTRNYKKTLLLRHHVSTEHKLHEANAQESEIPSEEGYCDFNSRPNENSYCYQLLRQLNEQRKKGILCDVSIVVSGKIFKAHKNILVAGSRFFKTLYCFSNKESPNQNNTTHLDIAAVQGFSVILDFLYSGNLVLTSQNAIEVMTVASYLQMSEVVQTCRNFIKDALNISIKSEAPESVVVDYNNRKPVNRDGLSSSRDQKIASFWATRNLTNLASNVKIENDGCNVDEGQIENYQMNDSSWVQDGSPEMAENESEGQTKVFIWNNMGSQGIQETGKTRRKNQTTKRFIYNIPPNNETNLEDCSVMQPPVAYPEENTLLIKEEPDLDGALLSGPDGDRNVNANLLAEAGTSQDGGDAGTSHDFKYGLMPGPSNDFKYGLIPGTSNDFKYGLIPGASNDFKYGLLPESWPKQETWENGESSLIMNKLKCPHCSYVAKYRRTLKRHLLIHTGVRSFSCDICGKLFTRREHVKRHSLVHKKDKKYKCMVCKKIFMLAASVGIRHGSRRYGVCVDCADKSQPGGQEGVDQGQDTEFPRDEEYEENEVGEADEELVDDGEDQNDPSRWDESGEVCMSLDD [ZBTB10] | -0.114 |  | 53.4 | -0.229 | -0.231 | -0.0451 |
| MPDENIFLFVPNLIGYARIVFAIISFYFMPCCPLTASSFYLLSGLLDAFDGHAARALNQGTRFGAMLDMLTDRCSTMCLLVNLALLYPGATLFFQISMSLDVASHWLHLHSSVVRGSESHKMIDLSGNPVLRIYYTSRPALFTLCAGNELFYCLLYLFHFSEGPLVGSVGLFRMGLWVTAPIALLKSLISVIHLITAARNMAALDAADRAKKK [CDIPT] | -0.0899 | 54.7 | 59.4 | -2.08 | -1.66 | -0.0289 |
| MEADKDDTQQILKEHSPDEFIKDEQNKGLIDEITKKNIQLKKEIQKLETELQEATKEFQIKEDIPETKMKFLSVETPENDSQLSNISCSFQVSSKVPYEIQKGQALITFEKEEVAQNVVSMSKHHVQIKDVNLEVTAKPVPLNSGVRFQVYVEVSKMKINVTEIPDTLREDQMRDKLELSFSKSRNGGGEVDRVDYDRQSGSAVITFVEIGVADKILKKKEYPLYINQTCHRVTVSPYTEIHLKKYQIFSGTSKRTVLLTGMEGIQMDEEIVEDLINIHFQRAKNGGGEVDVVKCSLGQPHIAYFEE [NMI] | 0.127 | 55.4 | 55.7 | -1.52 | -4.03 | -0.0719 |
| MGAVWSALLVGGGLAGALFVWLLRGGPGDTGKDGDAEQEKDAPLGGAAIPGGHQSGSSGLSPGPSGQELVTKPEHLQESNGHLISKTKDLGKLQAASWRLQNPSREVCDNSREHVPSGQFPDTEAPATSETSNSRSYSEVSRNESLESPMGEWGFQKGQEISAKAATCFAEKLPSSNLLKNRAKEEMSLSDLNSQDRVDHEEWEMVPRHSSWGDVGVGGSLKAPVLNLNQGMDNGRSTLVEARGQQVHGKMERVAVMPAGSQQVSVRFQVHYVTSTDVQFIAVTGDHECLGRWNTYIPLHYNKDGFWSHSIFLPADTVVEWKFVLVENGGVTRWEECSNRFLETGHEDKVVHAWWGIH [STBD1] | -0.336 | 50.7 | 50.3 | 0.314 | -0.125 | -0.0441 |
| CPS1 | 0.0669 | 53.1 | 53.2 | -0.953 | -3.38 | -0.13 |
| MGKKSRVKTQKSGTGATATVSPKEILNLTSELLQKCSSPAPGPGKEWEEYVQIRTLVEKIRKKQKGLSVTFDGKREDYFPDLMKWASENGASVEGFEMVNFKEEGFGLRATRDIKAEELFLWVPRKLLMTVESAKNSVLGPLYSQDRILQAMGNIALAFHLLCERASPNSFWQPYIQTLPSEYDTPLYFEEDEVRYLQSTQAIHDVFSQYKNTARQYAYFYKVIQTHPHANKLPLKDSFTYEDYRWAVSSVMTRQNQIPTEDGSRVTLALIPLWDMCNHTNGLITTGYNLEDDRCECVALQDFRAGEQIYIFYGTRSNAEFVIHSGFFFDNNSHDRVKIKLGVSKSDRLYAMKAEVLARAGIPTSSVFALHFTEPPISAQLLAFLRVFCMTEEELKEHLLGDSAIDRIFTLGNSEFPVSWDNEVKLWTFLEDRASLLLKTYKTTIEEDKSVLKNHDLSVRAKMAIKLRLGEKEILEKAVKSAAVNREYYRQQMEEKAPLPKYEESNLGLLESSVGDSRLPLVLRNLEEEAGVQDALNIREAISKAKATENGLVNGENSIPNGTRSENESLNQESKRAVEDAKGSSSDSTAGVKE [SETD3] | -0.0122 | 52.8 | 53.5 | 1.13 | 1.44 | -0.0646 |
| MAATAAAVVAEEDTELRDLLVQTLENSGVLNRIKAELRAAVFLALEEQEKVENKTPLVNESLKKFLNTKDGRLVASLVAEFLQFFNLDFTLAVFQPETSTLQGLEGRENLARDLGIIEAEGTVGGPLLLEVIRRCQQKEKGPTTGEGALDLSDVHSPPKSPEGKTSAQTTPSKIPRYKGQGKKKTSGQKAGDKKANDEANQSDTSVSLSEPKSKSSLHLLSHETKIGSFLSNRTLDGKDKAGLCPDEDDMEGDSFFDDPIPKPEKTYGLRKEPRKQAGSLASLSDAPPLKSGLSSLAGAPSLKDSESKRGNTVLKDLKLISDKIGSLGLGTGEDDDYVDDFNSTSHRSEKSEISIGEEIEEDLSVEIDDINTSDKLDDLTQDLTVSQLSDVADYLEDVA [FGFR1OP] | 0.156 | 52 | 52.4 | -0.228 | -0.703 | -0.0261 |
| MSFIDPYQHIIVEHQYSHKFTVVVLRATKVTKGAFGDMLDTPDPYVELFISTTPDSRKRTRHFNNDINPVWNETFEFILDPNQENVLEITLMDANYVMDETLGTATFTVSSMKVGEKKEVPFIFNQVTEMVLEMSLEVCSCPDLRFSMALCDQEKTFRQQRKEHIRESMKKLLGPKNSEGLHSARDVPVVAILGSGGGFRAMVGFSGVMKALYESGILDCATYVAGLSGSTWYMSTLYSHPDFPEKGPEEINEELMKNVSHNPLLLLTPQKVKRYVESLWKKKSSGQPVTFTDIFGMLIGETLIHNRMNTTLSSLKEKVNTAQCPLPLFTCLHVKPDVSELMFADWVEFSPYEIGMAKYGTFMAPDLFGSKFFMGTVVKKYEENPLHFLMGVWGSAFSILFNRVLGVSGSQSRGSTMEEELENITTKHIVSNDSSDSDDESHEPKGTENEDAGSDYQSDNQASWIHRMIMALVSDSALFNTREGRAGKVHNFMLGLNLNTSYPLSPLSDFATQDSFDDDELDAAVADPDEFERIYEPLDVKSKKIHVVDSGLTFNLPYPLILRPQRGVDLIISFDFSARPSDSSPPFKELLLAEKWAKMNKLPFPKIDPYVFDREGLKECYVFKPKNPDMEKDCPTIIHFVLANINFRKYRAPGVPRETEEEKEIADFDIFDDPESPFSTFNFQYPNQAFKRLHDLMHFNTLNNIDVIKEAMVESIEYRRQNPSRCSVSLSNVEARRFFNKEFLSKPKA [PLA2G4A] | -0.0367 | 50.3 | 50.1 | 1.55 | 0.83 | -0.0979 |
| MRRSEVLAEESIVCLQKALNHLREIWELIGIPEDQRLQRTEVVKKHIKELLDMMIAEEESLKERLIKSISVCQKELNTLCSELHVEPFQEEGETTILQLEKDLRTQVELMRKQKKERKQELKLLQEQDQELCEILCMPHYDIDSASVPSLEELNQFRQHVTTLRETKASRREEFVSIKRQIILCMEALDHTPDTSFERDVVCEDEDAFCLSLENIATLQKLLRQLEMQKSQNEAVCEGLRTQIRELWDRLQIPEEEREAVATIMSGSKAKVRKALQLEVDRLEELKMQNMKKVIEAIRVELVQYWDQCFYSQEQRQAFAPFCAEDYTESLLQLHDAEIVRLKNYYEVHKELFEGVQKWEETWRLFLEFERKASDPNRFTNRGGNLLKEEKQRAKLQKMLPKLEEELKARIELWEQEHSKAFMVNGQKFMEYVAEQWEMHRLEKERAKQERQLKNKKQTETEMLYGSAPRTPSKRRGLAPNTPGKARKLNTTTMSNATANSSIRPIFGGTVYHSPVSRLPPSGSKPVAASTCSGKKTPRTGRHGANKENLELNGSILSGGYPGSAPLQRNFSINSVASTYSEFAKDPSLSDSSTVGLQRELSKASKSDATSGILNSTNIQS [PRC1] | 0.0588 | 47.1 | 49 | 5.68 | 7.18 | 0.431 |
| MSLDIQSLDIQCEELSDARWAELLPLLQQCQVVRLDDCGLTEARCKDISSALRVNPALAELNLRSNELGDVGVHCVLQGLQTPSCKIQKLSLQNCCLTGAGCGVLSSTLRTLPTLQELHLSDNLLGDAGLQLLCEGLLDPQCRLEKLQLEYCSLSAASCEPLASVLRAKPDFKELTVSNNDINEAGVRVLCQGLKDSPCQLEALKLESCGVTSDNCRDLCGIVASKASLRELALGSNKLGDVGMAELCPGLLHPSSRLRTLWIWECGITAKGCGDLCRVLRAKESLKELSLAGNELGDEGARLLCETLLEPGCQLESLWVKSCSFTAACCSHFSSVLAQNRFLLELQISNNRLEDAGVRELCQGLGQPGSVLRVLWLADCDVSDSSCSSLAATLLANHSLRELDLSNNCLGDAGILQLVESVRQPGCLLEQLVLYDIYWSEEMEDRLQALEKDKPSLRVIS [RNH1] | 0.188 | 52.8 | 52.8 | 1.78 | 1.35 | -0.113 |
| MLGSLVLRRKALAPRLLLRLLRSPTLRGHGGASGRNVTTGSLGEPQWLRVATGGRPGTSPALFSGRGAATGGRQGGRFDTKCLAAATWGRLPGPEETLPGQDSWNGVPSRAGLGMCALAAALVVHCYSKSPSNKDAALLEAARANNMQEVSRLLSEGADVNAKHRLGWTALMVAAINRNNSVVQVLLAAGADPNLGDDFSSVYKTAKEQGIHSLEDGGQDGASRHITNQWTSALEFRRWLGLPAGVLITREDDFNNRLNNRASFKGCTALHYAVLADDYRTVKELLDGGANPLQRNEMGHTPLDYAREGEVMKLLRTSEAKYQEKQRKREAEERRRFPLEQRLKEHIIGQESAIATVGAAIRRKENGWYDEEHPLVFLFLGSSGIGKTELAKQTAKYMHKDAKKGFIRLDMSEFQERHEVAKFIGSPPGYVGHEEGGQLTKKLKQCPNAVVLFDEVDKAHPDVLTIMLQLFDEGRLTDGKGKTIDCKDAIFIMTSNVASDEIAQHALQLRQEALEMSRNRIAENLGDVQISDKITISKNFKENVIRPILKAHFRRDEFLGRINEIVYFLPFCHSELIQLVNKELNFWAKRAKQRHNITLLWDREVADVLVDGYNVHYGARSIKHEVERRVVNQLAAAYEQDLLPGGCTLRITVEDSDKQLLKSPELPSPQAEKRLPKLRLEIIDKDSKTRRLDIRAPLHPEKVCNTI [CLPB] | 0.0358 | 52 | 51.8 | 0.555 | 0.467 | -0.0294 |
